Data set [1] addresses T1, CBC (Homo sapiens, UniProt P52298).
T1 sequence (P52298 1-156): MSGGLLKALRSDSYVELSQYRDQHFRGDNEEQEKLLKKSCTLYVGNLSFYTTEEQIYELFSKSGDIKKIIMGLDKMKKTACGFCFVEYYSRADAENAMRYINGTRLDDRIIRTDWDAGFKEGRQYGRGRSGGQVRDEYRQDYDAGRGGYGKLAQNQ
T1 sequence (Q09161 20-790 partner): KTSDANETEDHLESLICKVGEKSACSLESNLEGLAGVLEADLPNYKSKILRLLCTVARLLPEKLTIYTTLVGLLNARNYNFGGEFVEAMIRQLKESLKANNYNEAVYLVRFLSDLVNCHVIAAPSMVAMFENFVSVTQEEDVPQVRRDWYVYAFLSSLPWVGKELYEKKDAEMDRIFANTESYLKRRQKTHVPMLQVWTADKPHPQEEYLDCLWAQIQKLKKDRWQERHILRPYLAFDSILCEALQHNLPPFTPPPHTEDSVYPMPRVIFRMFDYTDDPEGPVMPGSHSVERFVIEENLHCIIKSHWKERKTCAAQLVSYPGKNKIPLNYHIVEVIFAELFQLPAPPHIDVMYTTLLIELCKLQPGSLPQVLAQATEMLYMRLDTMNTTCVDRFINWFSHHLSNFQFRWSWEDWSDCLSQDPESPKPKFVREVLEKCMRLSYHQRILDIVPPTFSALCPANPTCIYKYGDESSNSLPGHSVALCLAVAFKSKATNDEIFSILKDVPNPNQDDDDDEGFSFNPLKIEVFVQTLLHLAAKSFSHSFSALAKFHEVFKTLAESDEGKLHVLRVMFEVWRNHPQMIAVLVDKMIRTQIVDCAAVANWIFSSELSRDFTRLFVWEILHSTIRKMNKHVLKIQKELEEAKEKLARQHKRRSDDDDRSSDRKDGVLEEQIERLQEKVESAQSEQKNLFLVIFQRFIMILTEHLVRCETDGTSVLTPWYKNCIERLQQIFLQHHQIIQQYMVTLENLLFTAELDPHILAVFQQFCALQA
Kind of data set: ITC, binding to CBC without cap analogue. The note with it: ITC (MicroCal ITC200), 25 °C, 20 mM HEPES, 120 mM NaCl, 2 mM TCEP, pH 7.8, single-site fit; no cap analogue pre-bound; mean ± SD of at least two independent experiments; SD. From the text: (§1) hARS2 isoform-4 (871 residues, UniProt:Q9BXP5-4, also known as isoform-e, NP_001122326) constructs (residues 147–871, 147–845, 763–871, 763–845, 827–871) hNELF-E (NM_002904.5) (244–380, 244–360) and hPHAX (NM_032177.3) (1–394, 103–294, 103–308, 103–327) were cloned into pETM11 (EMBL). Full-length hNELF-E (1–380) was cloned into pFASTBac and CBP20 into pETM30. Primers used are given in Supplementary Table 2. All constructs were expressed in E. coli Rosetta 2 (Novagen), except full-length NELF-E and CBP80ΔNLS (CBP80 with residues 1–19 deleted[2]), which were expressed in High Five insect cells (Life Technology). Cells were harvested and lysed by sonication in lysis buffer containing 50 mM HEPES, pH 7.8, 300 mM NaCl, 10% (v/v) glycerol, 5 mM β-mercaptoethanol. Lysates were clarified by centrifugation and applied on an equilibrated Ni-sepharose column (GE Healthcare), washed with 20 mM imidazole in lysis buffer, and eluted with 300 mM imidazole in lysis buffer. While dialysing into 20 mM HEPES, pH 7.8, 120 mM NaCl, 10% (v/v) glycerol, 5 mM β-mercaptoethanol, the N-terminal 6-histidine-tag was cleaved with His-tagged Tobacco Etch Virus (TEV) protease overnight in a ratio 1:100 mg TEV per mg protein. The cleaved protein was further purified first on Ni-sepharose to remove TEV and then using an anion exchange column (HiTrap Q, GE Healthcare) followed if necessary by a Heparin column (GE Healthcare). In both cases a NaCl gradient from 50 to 800 mM in 20 mM HEPES 7.8, 0.5 mM tris(2-carboxyethyl)phosphine was used. To reconstitute the CBC heterodimer, cleared His-tagged CBP20 lysate was first immobilised on a Ni-sepharose column. After washing the column with lysis buffer, the cleared CBP80 lysate was applied to the column and further purification steps performed as described above. To remove the access of CBP20 the flow through of the Ni-column after TEV cleavage was loaded on an anion exchange column (HiTrap Q, GE Healthcare) and CBC eluted by a NaCl gradient as described above. In the text we refer to CBP80ΔNLS and CBP80ΔNLS-CBP20 as CBP80 and CBC, respectively. ARS2^845–871, NELF-E^354–380, and NELF-E^360–380 peptides, with or without FAM label at the N-terminus, were purchased from GenScript.
A general note: In ITC the heat of successive injections is recorded.

Data set [2] addresses T1, CBC. As to the kind of experiment: Size exclusion chromatography (gel filtration) co-elution with CBC, with m^7GTP. It is filed as binding. The note with it: gel filtration with 500 µM m^7GTP, fractions analysed by SDS-PAGE. Here is the method:
Fig. 1 The interaction of CBC with ARS2 is enhanced in the presence of m^7GTP. a Schematic diagram of the domain structure of ARS2 based on ref. [26]. b Gel filtration chromatogram and Coomassie-stained SDS-PAGE of CBC-ARS2 in the presence and absence of m^7GTP. Purified recombinant CBC and ARS2^147–871 were mixed with (orange) or without (blue) 500 µM m^7GTP and subjected to gel filtration. Their elution profiles were overlaid (left) and single fractions analysed by SDS-PAGE (middle and right). Purified recombinant CBC and C-terminally truncated ARS2^147–845 were mixed with 500 µM m^7GTP and analysed in a similar way (bottom left). c ITC data and curve fit to derive the affinity of different ARS2 constructs for CBC. CBC or m^7GTP-CBC in the sample cell was titrated by ARS2. […] K D values and standard deviation represent the average from at least two independent experiments. d Sequence alignment of the C-terminus of ARS2. Conserved residues are highlighted in red. Figure made with ESPript[54]
Fig. 2 The interaction of CBC with NELF-E is enhanced in the presence of m^7GTP. a Schematic diagram of the domain structure of NELF-E. b Gel filtration chromatogram and Coomassie-stained SDS-PAGE of CBC-NELF-E in the presence and absence of m^7GTP. Purified recombinant CBC and NELF-E were mixed with (orange) or without (green) 500 µM m^7GTP and subjected to gel filtration. Their elution profiles were overlaid (left) and single fractions analysed by SDS-PAGE (middle and right). Purified recombinant CBC and NELF-E^244–360 were mixed together with 500 µM m^7GTP and similarly analysed (bottom left). c ITC data and curve fit to derive the affinity of different NELF-E constructs for CBC. CBC or m^7GTP-CBC in the sample cell was titrated by NELF-E^244–380 or NELF-E^360–380. The data were presented as described in the caption to Fig. 1c. d Sequence alignment of the C-terminus of NELF-E. Conserved residues are highlighted in red. Figure made with ESPript[54]
For orientation: In gel filtration, larger molecules generally elute earlier.

Another data set has as its target T2, m^7GTP-CBC (Homo sapiens, UniProt P52298+Q09161).
T2 construct: 6-histidine tag (pETM30 vector) (N, cleaved yes); made in house; host or cells: CBP20 in E. coli Rosetta 2; CBP80ΔNLS in High Five insect cells; heterodimer reconstituted on Ni-sepharose
T2 sequence (Q09161 20-790): T1 sequence (Q09161 20-790 partner)
T2 sequence (P52298 1-156): T1 sequence (P52298 1-156)
Kind of data set: ITC, binding to CBC in the presence of the cap analogue m^7GTP. Particulars: ITC, 25 °C, 20 mM HEPES, 120 mM NaCl, 2 mM TCEP, pH 7.8, CBC bound to m^7GTP, mean ± SD of at least two independent experiments.
Description: as §1

As usually defined, the Kd is the constant that tells how readily two partners part at equilibrium.

B1: PHAX 103–308: human PHAX residues 103–308 (protein, UniProt Q9H814 103-308, looked up, fragment)
chain: SQKPPVAGGKKINNIWGAVLQEQNQDAVATELGILGMEGTIDRSRQSETYNYLLAKKLRKESQEHTKDLDKELDEYMHGGKKMGSKEEENGQGHLKRKRPVKDRLGNRPEMNYKGRYEITAEDSQEKVADEISFRLQEPKKDLIARVVRIIGNKKAIELLMETAEVEQNGGLFIMNGSRRRTPGGVFLNLLKNTPSISEEQIKDIF
Regarding B1, in the data set with CBC [1], binding was characterised by a dissociation constant (Kd) of 600 ± 140 nM.

B2: NELF-E 244–360: NELF-E fragment that lacks the last 20 residues (protein, UniProt P18615 244-360, looked up, fragment)
chain: GPFRRSDSFPERRAPRKGNTLYVYGEDMTPTLLRGAFSPFGNIIDLSMDPPRNCAFVTYEKMESADQAVAELNGTQVESVQLKVNIARKQPMLDAATGKSVWGSLAVQNSPKGCHRD
As to B2, the “Interaction with CBC by SEC in the presence of m^7GTP” value in the data set with CBC [2] is given as “no stable complex is observed by SEC”.

B3: ARS2 763–871: human ARS2 isoform 4 residues 763–871, E. coli expressed (protein, UniProt Q9BXP5 763-871, looked up, fragment)
chain: PEIKPAQPPGPAQILPPGLTPGLPYPHQTPQGLMPYGQPRPPILGYGAGAVRPAVPTGGPPYPHAPYGAGRGNYDAFRGQGGYPGKPRNRMVRGDPRAIVEYRDLDAPD
modifications: isoform 4
notes: human ARS2 isoform 4 residues 763–871, E. coli expressed
For the molecule B3, the Kd with m^7GTP-CBC (SD) is 1000 ± 300 nM.

B4: ARS2 763–845: human ARS2 isoform 4 residues 763–845, lacks the C-terminal 27 amino acids (protein, UniProt Q9BXP5 763-845, looked up, fragment)
chain: PEIKPAQPPGPAQILPPGLTPGLPYPHQTPQGLMPYGQPRPPILGYGAGAVRPAVPTGGPPYPHAPYGAGRGNYDAFRGQGGY
modifications: isoform 4
notes: human ARS2 isoform 4 residues 763–845, lacks the C-terminal 27 amino acids
With B4, the “K D” value in the data set with m^7GTP-CBC is reported as “failed to bind”.

B5: ARS2^147–845: C-terminally truncated ARS2, residues 147–845 (protein, UniProt Q9BXP5 147-845, looked up, fragment)
chain: PVMKTFKEFLLSLDDSVDETEAVKRYNDYKLDFRRQQMQDFFLAHKDEEWFRSKYHPDEVGKRRQEARGALQNRLRVFLSLMETGWFDNLLLDIDKADAIVKMLDAAVIKMEGGTENDLRILEQEEEEEQAGKPGEPSKKEEGRAGAGLGDGERKTNDKDEKKEDGKQAENDSSNDDKTKKSEGDGDKEEKKEDSEKEAKKSSKKRNRKHSGDDSFDEGSVSESESESESGQAEEEKEEAEEALKEKEKPKEEEWEKPKDAAGLECKPRPLHKTCSLFMRNIAPNISRAEIISLCKRYPGFMRVALSEPQPERRFFRRGWVTFDRSVNIKEICWNLQNIRLRECELSPGVNRDLTRRVRNINGITQHKQIVRNDIKLAAKLIHTLDDRTQLWASEPGTPPLPTSLPSQNPILKNITDYLIEEVSAEEEELLGSSGGAPPEEPPKEGNPAEINVERDEKLIKVLDKLLLYLRIVHSLDYYNTCEYPNEDEMPNRCGIIHVRGPMPPNRISHGEVLEWQKTFEEKLTPLLSVRESLSEEEAQKMGRKDPEQEVEKFVTSNTQELGKDKWLCPLSGKKFKGPEFVRKHIFNKHAEKIEEVKKEVAFFNNFLTDAKRPALPEIKPAQPPGPAQILPPGLTPGLPYPHQTPQGLMPYGQPRPPILGYGAGAVRPAVPTGGPPYPHAPYGAGRGNYDAFRGQGGY
Consider B5, for which the “Interaction with CBC by SEC in the presence of m^7GTP” value with CBC [2] is on record as “failed to bind”.

B6: PHAX 103–294: human PHAX residues 103–294, minimal CBC binding region (protein, UniProt Q9H814 103-294, looked up, fragment)
chain: SQKPPVAGGKKINNIWGAVLQEQNQDAVATELGILGMEGTIDRSRQSETYNYLLAKKLRKESQEHTKDLDKELDEYMHGGKKMGSKEEENGQGHLKRKRPVKDRLGNRPEMNYKGRYEITAEDSQEKVADEISFRLQEPKKDLIARVVRIIGNKKAIELLMETAEVEQNGGLFIMNGSRRRTPGGVFLNLLK
In the case of B6, in the data set with CBC [1], the Kd was determined as 850 ± 210 nM.

(Values after PMC5670239, “Structural basis for mutually exclusive co-transcriptional nuclear cap-binding complexes with either NELF-E or ARS2” (Nature Communications, 2017).)
